Reference: patent publication US20250312444A1 (BEIJING TUO JIE BIOPHARMACEUTICAL, published 2025)
Residue numbers refer to the chain shown, from its start. Values belong to the binder of their own block, whether it stands above or below them.

What was measured:
[1] = target: T1, human RXFP1 receptor (human, UniProt Q9HBX9 1-757); assay: cell-based or functional assay
T1 sequence (looked up): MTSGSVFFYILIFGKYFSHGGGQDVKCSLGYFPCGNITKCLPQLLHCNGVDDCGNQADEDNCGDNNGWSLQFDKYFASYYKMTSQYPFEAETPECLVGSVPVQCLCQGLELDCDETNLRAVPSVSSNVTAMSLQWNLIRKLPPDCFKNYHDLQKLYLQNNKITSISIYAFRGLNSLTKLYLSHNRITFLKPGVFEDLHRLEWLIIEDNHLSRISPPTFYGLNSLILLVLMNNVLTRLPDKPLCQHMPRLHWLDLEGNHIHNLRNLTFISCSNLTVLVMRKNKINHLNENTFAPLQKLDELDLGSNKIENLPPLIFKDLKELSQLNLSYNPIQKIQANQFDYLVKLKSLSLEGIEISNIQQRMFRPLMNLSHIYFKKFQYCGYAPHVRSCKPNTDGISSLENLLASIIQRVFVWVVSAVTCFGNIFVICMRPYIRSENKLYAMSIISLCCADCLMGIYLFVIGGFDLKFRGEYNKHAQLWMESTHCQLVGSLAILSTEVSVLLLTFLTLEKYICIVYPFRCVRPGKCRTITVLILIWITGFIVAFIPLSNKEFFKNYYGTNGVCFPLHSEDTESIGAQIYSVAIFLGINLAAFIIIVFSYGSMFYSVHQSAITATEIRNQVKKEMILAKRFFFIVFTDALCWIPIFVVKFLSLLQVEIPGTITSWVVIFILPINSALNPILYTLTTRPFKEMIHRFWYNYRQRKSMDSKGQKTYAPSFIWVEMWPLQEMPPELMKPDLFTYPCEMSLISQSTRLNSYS

[2] = target: human serum albumin (HSA) (human); assay: SPR Biacore T200, fusion protein captured by anti-VHH antibody, albumin as analyte
Experimental: (§1) Coupling of an anti-VHH antibody (MonoRab™ Rabbit Anti-Camelid VHH Cocktail, Genescript, Cat No. A02014) to an S series CM5 sensor chip (GE, Cat No. 29-1049-88) was performed using an amino coupling kit (GE, Cat No. BR-1000-50). The antibody was diluted to 10 μg/mL with 10 mM sodium acetate (pH 4.5) (GE, Cat No. BR-1003-50). After the CM5 chip was activated with EDC/NHS, the diluted anti-VHH antibody was flowed over the chip to reach a surface response value of about 5000 RU, and then the chip was blocked with ethanolamine for later use.
(§2) The albumin from each species was serially diluted in a gradient with 1XHBS-EP (10 mM HEPES, pH 7.4, 150 mM NaCl, 3 mM EDTA, 0.05% Surfactant P20). The test fusion protein molecule was captured using the anti-VHH antibody-coupled chip, with a response value of about 30 RU. Then, different concentrations of serum albumin were flowed over the surface of the chip for 3 min at a flow rate of 50 μL/min, with a dissociation time of 1-10 min (the dissociation time varied depending on the species of albumin). After the end of each cycle, the chip was regenerated using 10 mM glycine-hydrochloric acid (pH 1.5) (GE, Cat No. BR-1003-54). The reaction signals were detected in real-time using Biacore T200 (GE) to obtain the association and dissociation curves, and the data obtained were fitted with a Langmuir 1:1 binding model using the BIAevaluation version 4.1 software at appropriate concentration points to obtain the affinity values.

[3] = target: T2, rat serum albumin (rat); assay: as above
T2 chain: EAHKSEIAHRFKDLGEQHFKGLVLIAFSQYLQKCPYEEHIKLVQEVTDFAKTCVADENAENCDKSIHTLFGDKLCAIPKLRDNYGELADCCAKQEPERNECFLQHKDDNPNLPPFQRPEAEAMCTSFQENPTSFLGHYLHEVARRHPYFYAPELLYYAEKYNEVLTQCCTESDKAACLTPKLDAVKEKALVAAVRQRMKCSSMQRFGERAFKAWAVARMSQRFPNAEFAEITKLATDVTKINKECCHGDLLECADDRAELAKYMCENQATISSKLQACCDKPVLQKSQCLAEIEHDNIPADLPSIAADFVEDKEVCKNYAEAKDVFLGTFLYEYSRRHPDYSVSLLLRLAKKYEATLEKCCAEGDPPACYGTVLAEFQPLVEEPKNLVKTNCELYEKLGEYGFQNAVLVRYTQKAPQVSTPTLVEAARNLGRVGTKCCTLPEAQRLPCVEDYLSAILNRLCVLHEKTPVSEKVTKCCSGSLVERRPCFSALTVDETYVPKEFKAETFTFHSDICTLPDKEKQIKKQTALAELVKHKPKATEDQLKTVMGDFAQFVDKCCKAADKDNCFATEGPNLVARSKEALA
Experimental: as §1, §2

[4] = target: human serum albumin (HSA) (human); assay: SPR Biacore T200, albumin amine-coupled, fusion protein as analyte
Experimental: (§3) Coupling of serum albumins from different species to an S series CM5 sensor chip (GE, Cat. 29-1049-88) was performed using an amino coupling kit (GE, Cat No. BR-1000-50). The albumin from each species was diluted to 2 μg/mL. After the CM5 chip was activated with EDC/NHS, the diluted albumin was flowed over the chip to reach a surface response value of about 200 (180 to 230) RU, and then the chip was blocked with ethanolamine. The blank control channel also needed to be activated with EDC/NHS and blocked with ethanolamine. […] The samples of 0051 and 0054 at different concentrations were separately flowed through the albumin-coupled and blank channels for 3 min at a flow rate of 50 μL/min, with a dissociation time of 4 min. After the end of each cycle, the chip was regenerated using 10 mM glycine-hydrochloric acid (pH 1.5) (GE, Cat. #BR-1003-54). The reaction signals were detected in real-time using Biacore T200 (GE) to obtain the association and dissociation curves, and the data obtained were fitted with a Langmuir 1:1 binding model using the BIAevaluation version 4.1 software at appropriate concentration points to obtain the affinity values.

[5] = target: mouse serum albumin (mSA) (mouse); assay: as above
Experimental: as §3

[6] = target: T2, rat serum albumin; assay: as above
Experimental: as §3

[7] = target: human serum albumin (HSA) (human); assay: phage supernatant ELISA, albumin coated
[8] = target: T3, monkey serum albumin (CySA) (monkey); assay: phage supernatant ELISA, albumin coated
T3 chain: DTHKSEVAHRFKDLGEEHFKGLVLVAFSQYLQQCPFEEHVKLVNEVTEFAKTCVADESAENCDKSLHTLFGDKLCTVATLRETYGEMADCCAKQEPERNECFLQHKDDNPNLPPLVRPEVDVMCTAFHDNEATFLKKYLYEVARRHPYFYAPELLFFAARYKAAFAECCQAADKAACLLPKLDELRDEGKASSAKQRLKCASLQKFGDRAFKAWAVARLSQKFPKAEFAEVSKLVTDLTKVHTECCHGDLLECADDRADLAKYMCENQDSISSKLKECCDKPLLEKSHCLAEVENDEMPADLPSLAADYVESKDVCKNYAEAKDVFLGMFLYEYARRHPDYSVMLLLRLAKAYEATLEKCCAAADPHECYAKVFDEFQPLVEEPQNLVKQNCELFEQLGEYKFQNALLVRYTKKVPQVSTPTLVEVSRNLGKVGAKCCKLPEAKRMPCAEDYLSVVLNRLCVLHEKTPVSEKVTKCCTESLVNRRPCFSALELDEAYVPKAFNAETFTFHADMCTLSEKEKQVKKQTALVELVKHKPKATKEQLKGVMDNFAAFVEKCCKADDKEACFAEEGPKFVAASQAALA

[9] = target: mouse serum albumin (mSA) (mouse); assay: phage supernatant ELISA, albumin coated

B1: 0052 (other)
chain: EVQLLESGGGLVQPGGSLRLSCAASGFTFLTSCMGWFRQAPGKEREGVSSIYTVGGSTFYTNSVKGRFTISRDNSKNTLYLQMNSLRAEDTAVYYCAAGSPARCRLRDPTTFDYWGQGTLVTVSSPGPAPGPAPGPAPGPAPGPAPGPAPGPAPGPASWMEEVIKLCGRELVRAQIAICGMSTWSGGGSGGSGGGQLYSALANKCCHVGCTKRSLARFC
notes: Single-chain fusion: anti-HSA VHH, linker, relaxin-2 B chain, linker, relaxin-2 A chain; also called fusion protein 0052
EC50 (nM), cAMP production in THP1 cells, 1% HSA [1]: 21.5 nM | EC50 (nM), cAMP production in THP1 cells, without HSA [1]: 5.22 nM | Kd [2]: 9.65 nM | koff [2]: 0.000867 s⁻¹ | kon [2]: 89900 M⁻¹ s⁻¹ | Kd [3]: 145 nM | koff [3]: 0.00599 s⁻¹ | kon [3]: 41300 M⁻¹ s⁻¹

B2: 0054 (other)
chain: EVQLLESGGGLVQPGGSLRLSCAASGRYIDETAVAWFRQAPGKGREFVAGIGGGVDITYYADSVKGRFTISRDNSKNTLYLQMNSLRPEDTAVYYCAARPGRPLITSKVADLYPYWGQGTLVTVSSGGGGQGGGGQGGGGQGGGGQGGGGQSWMEEVIKLCGRELVRAQIAICGMSTWSGGGSGGSGGGQLYSALANKCCHVGCTKRSLARFC
notes: also called positive control 0054; positive control molecule 0054
Kd [4]: 0.099 nM | koff [4]: 0.000181 s⁻¹ | kon [4]: 1.83e+06 M⁻¹ s⁻¹ | Kd [5]: 1.37 nM | koff [5]: 0.0027 s⁻¹ | kon [5]: 1.97e+06 M⁻¹ s⁻¹ | Kd [6]: 1.06 nM | koff [6]: 0.00246 s⁻¹ | kon [6]: 2.31e+06 M⁻¹ s⁻¹ | Kd [2]: 15.8 nM | koff [2]: 0.000563 s⁻¹ | kon [2]: 35700 M⁻¹ s⁻¹ | Kd [3]: 183 nM | koff [3]: 0.0113 s⁻¹ | kon [3]: 61500 M⁻¹ s⁻¹

B5: 0065 (other)
chain: EVQLLESGGGLVQPGGSLRLSCAASGFTFLTSCMGWFRQAPGKEREGVSSIYTVGGSTFYTNSVKGRFTISRDNSKNTLYLQMNSLRPEDTAVYYCAAGSPARCRLRDPTTFDYWGQGTLVTVSSGGGGQGGGGQGGGGQGGGGQGGGGQSWMEEVIKLCGRELVRAQIAICGMSTWSGGGSGGSGGGQLYSALANKCCHVGCTKRSLARFC
notes: Single-chain fusion: anti-HSA VHH, linker, relaxin-2 B chain, linker, relaxin-2 A chain; also called fusion protein 0065
EC50 (nM), cAMP production in THP1 cells, 1% HSA [1]: 23 nM | EC50 (nM), cAMP production in THP1 cells, without HSA [1]: 2.08 nM | Kd [2]: 9.68 nM | koff [2]: 0.000797 s⁻¹ | kon [2]: 82300 M⁻¹ s⁻¹ | Kd [3]: 159 nM | koff [3]: 0.00567 s⁻¹ | kon [3]: 35700 M⁻¹ s⁻¹

Continued, values first:

OD450 [7]: 1.69 OD450 | OD450 [8]: 1.75 OD450 | OD450 [9]: 1.12 OD450
B3: #7aHSA (VHH)
VHH: HVQLVESGGGSVQAGGSLRVSCVASGNTYLTSCMGWFRQAPGKEREGVASIYTVGGSTFYTNSVKGRFTISRDNAKNTVYLQMNSLQPEDTAMYYCAAGSPARCRLRDPTTFDYWGQGTQVTVSS
notes: also called clone #7

OD450 [7]: 1.52 OD450 | OD450 [8]: 1.82 OD450 | OD450 [9]: 1.09 OD450
B4: #9aHSA (VHH)
VHH: DVQLVESGGGSVQAGGSLRLSCAAAEYTYLNSCLGWFRQAPGKEREGVATIYMVGGSTFYADSVKGRFTISRDNAKNTVYLMMNSLKPEDTAMYYCAAGSPARCLRRDPTTFNYWGQGTQVTVSS
notes: also called clone #9

EC50 (nM), cAMP production in THP1 cells, 1% HSA [1]: 19.8 nM | EC50 (nM), cAMP production in THP1 cells, without HSA [1]: 8.5 nM | Kd [2]: 5.59 nM | koff [2]: 0.00086 s⁻¹ | kon [2]: 154000 M⁻¹ s⁻¹ | Kd [3]: 58.5 nM | koff [3]: 0.00579 s⁻¹ | kon [3]: 98900 M⁻¹ s⁻¹
B6: 0064 (other)
chain: B5 chain with F27N, F29Y, R87Q
notes: Single-chain fusion: anti-HSA VHH, linker, relaxin-2 B chain, linker, relaxin-2 A chain; also called fusion protein 0064
